Key:
[1] = biological target: T1, LJ0536 (cinnamoyl esterase) (Lactobacillus johnsonii, UniProt D3YEX6, S106A); test: X-ray crystallography, co-crystal; assay type: binding; conditions: 0.1 M Tris pH 8.5, active site
T1 construct: gene FEE39_08260; full length in p15TV-L, E. coli BL21(DE3); His6-tag removed by TEV for kinetics; crystals: tag uncleaved, protease-treated (subtilisin or V8), residues 1-245 modelled, four C-terminal residues lost

purified protein = substrate: CCCC(=O)Oc1ccc([N+](=O)[O-])cc1; test: purified protein; assay type: biochemical, Lactobacillus johnsonii; conditions: HEPES pH 7.80, 25 °C (typical assay; saturation conditions as in ref 14), pH 7.8
[2] = biological target: the molecule itself; test: crystal structure; sitting drop, protein at 15 mg/mL with His6-tag uncleaved, pre-treated with subtilisin (apo) or V8 protease (S106A); S106A co-crystallised with ethyl ferulate
[3] = biological target: the molecule itself; test: SEC; gel filtration on Superose 12 10/300GL (FPLC), mobile phase 10 mM HEPES with 150 mM NaCl, calibrated with molecular weight standards
[4] = deletion made by ligation at a SmaI junction

Row | Molecule | Km (purified protein) [µM] | Vmax (purified protein) [µmol/min/mg] | kcat (purified protein) [s⁻¹] | kcat/Km (purified protein) [M⁻¹ s⁻¹] | other results
1 | CCOC(=O)/C=C/c1ccc(O)c(OC)c1 [ethyl ferulate] | – | – | – | – | X-ray crystallography, co-crystal ([1]; Form I (5 mM ligand, 1.58 Å, 3PFB) and Form II (25 mM ligand, 1.82 Å, 3QM1)): The Ser106Ala-ethyl ferulate complex crystallized in two forms
2 | COc1cc(/C=C/C(=O)O)ccc1O [ferulic acid] | – | – | – | – | X-ray crystallography, co-crystal ([1]; 5 mM ligand, 1.75 Å): co-crystallized this mutant with ferulic acid, ethyl ferulate, or chlorogenic acid
3 | LJ0536 (cinnamoyl esterase) (Lactobacillus johnsonii; DEL147-173) (protein, full length in p15TV-L, E. coli BL21(DE3); His6-tag removed by TEV for kinetics; crystals: tag uncleaved, protease-treated (subtilisin or V8), residues 1-245 modelled, four C-terminal residues lost) MATITLERDGLQLVGTREEPFGEIYDMAIIFHGFTANRNTSLLREIANSLRDENIASVRFDFNGHGDSDGKFENMTVLNEIEDANAILNYVKTDPHVRNIYLVGHSQGGVVASMLAGLYPDLIKKVVLLAPAATLKGDALEGNTQGQQLPIYEVSAQFTKPVCLIHGTDDTVVSPNASKKYDQIYQNSTLHLIEGADHCFSDSYQKNAVNLTTDFLQNNNAF | – | – | – | – | Km (purified protein; [4]): 650 ± 120 µM; Vmax (purified protein; [4]): 0.28 µmol/min/mg; kcat (purified protein; [4]): 0.13 s⁻¹; kcat/Km (purified protein; [4]): 198 M⁻¹ s⁻¹
4 | apo-LJ0536 (wild type), as crystallised after treatment with subtilisin (enzyme, Lactobacillus johnsonii N6.2, UniProt D3YEX6 1-245, looked up, LJ0536, serine cinnamoyl esterase, Lactobacillus johnsonii N6.2; residues 1-245 seen in the map, four C-terminal residues lost to the protease, plus five residues of the expression tag; Crystallised with the His6 tag uncleaved, but only five residues of the expression tag are seen after the protease treatment; also called apo WT LJ0536; not shown: His6, N-terminal, kept) MATITLERDGLQLVGTREEPFGEIYDMAIIFHGFTANRNTSLLREIANSLRDENIASVRFDFNGHGDSDGKFENMTVLNEIEDANAILNYVKTDPHVRNIYLVGHSQGGVVASMLAGLYPDLIKKVVLLAPAATLKGDALEGNTQGVTYNPDHIPDRLPFKDLTLGGFYLRIAQQLPIYEVSAQFTKPVCLIHGTDDTVVSPNASKKYDQIYQNSTLHLIEGADHCFSDSYQKNAVNLTTDFLQN | – | – | – | – | binding result [2]: binds
5 | LJ0536 (cinnamoyl esterase) (Lactobacillus johnsonii; H225A) (protein, full length in p15TV-L, E. coli BL21(DE3); His6-tag removed by TEV for kinetics; crystals: tag uncleaved, protease-treated (subtilisin or V8), residues 1-245 modelled, four C-terminal residues lost) MATITLERDGLQLVGTREEPFGEIYDMAIIFHGFTANRNTSLLREIANSLRDENIASVRFDFNGHGDSDGKFENMTVLNEIEDANAILNYVKTDPHVRNIYLVGHSQGGVVASMLAGLYPDLIKKVVLLAPAATLKGDALEGNTQGVTYNPDHIPDRLPFKDLTLGGFYLRIAQQLPIYEVSAQFTKPVCLIHGTDDTVVSPNASKKYDQIYQNSTLHLIEGADACFSDSYQKNAVNLTTDFLQNNNAF | 190 ± 40 | 0.65 | 0.3 | 1570 | –
6 | LJ0536 (cinnamoyl esterase) (Lactobacillus johnsonii; Q145A) (protein, full length in p15TV-L, E. coli BL21(DE3); His6-tag removed by TEV for kinetics; crystals: tag uncleaved, protease-treated (subtilisin or V8), residues 1-245 modelled, four C-terminal residues lost) MATITLERDGLQLVGTREEPFGEIYDMAIIFHGFTANRNTSLLREIANSLRDENIASVRFDFNGHGDSDGKFENMTVLNEIEDANAILNYVKTDPHVRNIYLVGHSQGGVVASMLAGLYPDLIKKVVLLAPAATLKGDALEGNTAGVTYNPDHIPDRLPFKDLTLGGFYLRIAQQLPIYEVSAQFTKPVCLIHGTDDTVVSPNASKKYDQIYQNSTLHLIEGADHCFSDSYQKNAVNLTTDFLQNNNAF | 290 ± 40 | 2.05 | 0.94 | 3250 | –
7 | LJ0536 Ser106Ala mutant, as crystallised after treatment with V8 protease (enzyme, Lactobacillus johnsonii N6.2, made from the p15TV-L wild-type clone; also called LJ0536 S106A; S106A; not shown: His6, N-terminal, kept) MATITLERDGLQLVGTREEPFGEIYDMAIIFHGFTANRNTSLLREIANSLRDENIASVRFDFNGHGDSDGKFENMTVLNEIEDANAILNYVKTDPHVRNIYLVGHAQGGVVASMLAGLYPDLIKKVVLLAPAATLKGDALEGNTQGVTYNPDHIPDRLPFKDLTLGGFYLRIAQQLPIYEVSAQFTKPVCLIHGTDDTVVSPNASKKYDQIYQNSTLHLIEGADHCFSDSYQKNAVNLTTDFLQNNNAF | – | – | – | – | binding result [2]: binds
8 | LJ0536 (cinnamoyl esterase) (Lactobacillus johnsonii; S68A) (protein, full length in p15TV-L, E. coli BL21(DE3); His6-tag removed by TEV for kinetics; crystals: tag uncleaved, protease-treated (subtilisin or V8), residues 1-245 modelled, four C-terminal residues lost) MATITLERDGLQLVGTREEPFGEIYDMAIIFHGFTANRNTSLLREIANSLRDENIASVRFDFNGHGDADGKFENMTVLNEIEDANAILNYVKTDPHVRNIYLVGHSQGGVVASMLAGLYPDLIKKVVLLAPAATLKGDALEGNTQGVTYNPDHIPDRLPFKDLTLGGFYLRIAQQLPIYEVSAQFTKPVCLIHGTDDTVVSPNASKKYDQIYQNSTLHLIEGADHCFSDSYQKNAVNLTTDFLQNNNAF | 80 ± 20 | 0.47 | 0.22 | – | –
9 | LJ0536 (cinnamoyl esterase) (Lactobacillus johnsonii; H32A) (protein, full length in p15TV-L, E. coli BL21(DE3); His6-tag removed by TEV for kinetics; crystals: tag uncleaved, protease-treated (subtilisin or V8), residues 1-245 modelled, four C-terminal residues lost) MATITLERDGLQLVGTREEPFGEIYDMAIIFAGFTANRNTSLLREIANSLRDENIASVRFDFNGHGDSDGKFENMTVLNEIEDANAILNYVKTDPHVRNIYLVGHSQGGVVASMLAGLYPDLIKKVVLLAPAATLKGDALEGNTQGVTYNPDHIPDRLPFKDLTLGGFYLRIAQQLPIYEVSAQFTKPVCLIHGTDDTVVSPNASKKYDQIYQNSTLHLIEGADHCFSDSYQKNAVNLTTDFLQNNNAF | 130 ± 80 | 0.09 | 0.04 | 318 | –
10 | LJ0536 (cinnamoyl esterase) (Lactobacillus johnsonii; D138A) (protein, full length in p15TV-L, E. coli BL21(DE3); His6-tag removed by TEV for kinetics; crystals: tag uncleaved, protease-treated (subtilisin or V8), residues 1-245 modelled, four C-terminal residues lost) MATITLERDGLQLVGTREEPFGEIYDMAIIFHGFTANRNTSLLREIANSLRDENIASVRFDFNGHGDSDGKFENMTVLNEIEDANAILNYVKTDPHVRNIYLVGHSQGGVVASMLAGLYPDLIKKVVLLAPAATLKGAALEGNTQGVTYNPDHIPDRLPFKDLTLGGFYLRIAQQLPIYEVSAQFTKPVCLIHGTDDTVVSPNASKKYDQIYQNSTLHLIEGADHCFSDSYQKNAVNLTTDFLQNNNAF | 220 ± 30 | 1.23 | 0.57 | 2570 | –
11 | LJ0536, cinnamoyl esterase of Lactobacillus johnsonii N6.2 (wild type) (enzyme, UniProt D3YEX6 1-249, looked up, LJ0536, serine cinnamoyl esterase, Lactobacillus johnsonii N6.2; the crystallised fragment 1-245 is said to lack four C-terminal residues of the full-length protein; The protein as used for gel filtration; also called WT) MATITLERDGLQLVGTREEPFGEIYDMAIIFHGFTANRNTSLLREIANSLRDENIASVRFDFNGHGDSDGKFENMTVLNEIEDANAILNYVKTDPHVRNIYLVGHSQGGVVASMLAGLYPDLIKKVVLLAPAATLKGDALEGNTQGVTYNPDHIPDRLPFKDLTLGGFYLRIAQQLPIYEVSAQFTKPVCLIHGTDDTVVSPNASKKYDQIYQNSTLHLIEGADHCFSDSYQKNAVNLTTDFLQNNNAF | 160 ± 20 | 3.34 | 1.53 | 9590 | binding result [3]: binds

Source: PMC3158066, “An Inserted α/β Subdomain Shapes the Catalytic Pocket of Lactobacillus johnsonii Cinnamoyl Esterase” (PLoS ONE, 2011)
